This note sets out measurements from the DeepSol protein solubility set.

This data set can be described thus: soluble on expression in E. coli; label from the status in PepcDB or PDB records.
Consider “VSIAQAQVVVSSKIDTEGGVLGNIILAVLNQNKIETTDRIQLGATPVVRKAITAGEIDIYPEYTGNAAFFFSKADDPLWKDAAKGYEEAKTLDYDANKIVWLAPSPANNTWAIALRKDVADKNNLKTLSDFGKYVAGGGTVVLAASSEFVNSAAALPAFQTTYGFTMKPDQLITLSGGDTAATIAAAANQTNNANAAMVYGTDGGIAPSGLVVLEDDKHVQPVYQPAPIIREEVLKKHPNIEELLKPVFEKLDLATLQDLNARVQVGGEQAKTVAMDFLTKNGFAK”, for which the “soluble on expression in E. coli” value is “soluble”.
Turning to “MGSDKIHHHHHHMRKMMNEQLPISKSSPLKARFYDYPYFTYPWHFHTEYEIIYVKEGTGMRFVGNNAEKYADGDILLLGSDLPHYMKSDEVYRQEGSTLRTTGTIIQFEKDFMHHAFNYYPHFMKIKNLLEEAQRGIYFPAGCSPRLVDLLESIPVETGVDQITSFLQLLKEMANVASRSVLSTSDFENDIIYDGSRIDKIIVYLNKNYTRQIDLNEISSLAAMNPAAFCRFFKSKTGKSFKNYILEMRIGYACKLLLMGDMNISQISVECGFDTISHFNKSFKKHTGFTPSYYKRMMLAE”, the “soluble on expression in E. coli” value is on record as “not soluble”.
Then “MGHHHHHHSHMEQFEVIKQQKEIIEHGIELFNKKPKRGIQFLQEQGMLGTSVEDIAQFLHQEERLDSTQVGDFLGDSARFNKEVMYAYVDQLDFCEKEFVSALRTFLEGFRLPGEAQKIDRLMEKFAARYIECNQGQTLFASADTAYVLAYSIIMLTTDLHSPQVKNKMTKEQYIKMNRGINDSKDLPEEYLSSIYEEIEGKKIAMKETKELT”, with “soluble”; and “MSDNDTIVAQATPPGRGGVGILRISGFKAREVAETVLGKLPKPRYADYLPFKDADGSVLDQGIALWFPGPNSFTGEDVLELQGHGGPVILDLLLKRILTIPGLRIARPGEFSERAFLNDKLDLAQAEAIADLIDASSEQAARSALNSLQGAFSARVNHLVEALTHLRIYVEAAIDFPDEEIDFLSDGKIEAQLNDVIADLDAVRAEARQGSLLREGMKVVIAGRPNAGKSSLLNALAGREAAIVTDIAGTTRDVLREHIHIDGMPLHIIDTAGLREASDEVERIGIERAWQEIEQADRVLFMVDGTTTDAVDPAEIWPEFIARLPAKLPITVVRNKADITGETLGMSEVNGHALIRLSARTGEGVDVLRNHLKQSMGFDTNMEGGFLARRRHLQALEQAAEHLQQGKAQLLGAWAGELLAEELRLAQQNLSEITGEFTSDDLLGRIFSSFCIGK”, with “soluble”; and “MGHHHHHHSHMRLSQKWQVINQRSLLCGEDEAADENPESQEMLEEQLVRMLTREVMDLITVCCVSKKGADHSSAPPADGDDEEMMATEVTPSAMAELTDLGKCLMKHEDVCTALLITAFNSLAWKDTLSCQRTTSQLCWPLLKQVLSGTLLADAVTWLFTSVLKGLQMHGQHDGCMASLVHLAFQIYEALRPRYLEIRAVMEQIPEIQKDSLDQFDCKLLNPSLQKVADKRRKDQFERLIAGCIGKPLGEQFRKEVHIKNLPSLFKKTKPMLETEVLDNDGGGLATIFEP”, with “not soluble”.
Then “MKDNEIISLFELRDEHAIEALSDKYHPYCYKIAWNLLTNKEDSEECLNDTWFSVWSLIPPKKPSVLSHFCGRITRNLSIDRLRKKYADRRPDLHMADVLGEMDHLSVTYTIEDQLAEKELLEIINDFLGKMNAEDRDIFVRRYWFFDSIAAIAKRHAMSVGSVKMNLYRSRKKLLKVLKKEGKHL”, with “not soluble”; and “MSLRPQFEREQWLNLNGTWTFDFDFGKSGKDRRLQSAEKFDKNITVPFCPESKLSGVGYTDFIEQMWYQRNITIPSDWNGKKIFLNFGAVDYCAEIYVDGKFVQRHFGGSSSFAVDLTRYVTPGKTHNLVVFVQDDLRSGLQTGGKQCGNYYSGGCSYTRTTGIWQTVWMEAVSTDGLKSVFVRPDIDQKQLIIEPEFYNESANTLEIILKDGNKTVAKKSVNCANSSVVVLPVKNMKLWSPEDPFLYDLVYQVKDAKGNVLDEVKSYAGMRKVHTANGRFYLNNQPYFQRLVLDQGFYPEGIWTAPSDEDLKNDIVLGKEAGFNGARLHQKVFEERYYYWADKLGYITWGESASWMLDVNKELAARNFLGEWSEVVVRDRNHPSLVTWTPFNETWGGGPDAYVRLVRDVYNITKAIDPTRPVNDASGDNHVITDIWSVHNYEQDRAKLTEQLKMEEGKEPYRNARDKDFLAVYEGQPYMVDEFGGIPWMAEKDRKNSWGYGGMPENAEAFYKRLEGQIDAFIDSPHVTGFCYTQLTDVEQEKNGIYYYDRTPKLDMKRIKAIFEKIKEGHHHHHH”, with “soluble”; and “MGSDKIHHHHHHMNQNLSSYWIFYTVANAGNISKAAKELYISQPAISKSIQKLEDGLECKLFSRSSRGVVLTDEGRLLYDHVSEAFEALNEGEEKLKRSIELGVGQLKIGVSSTLCKYMLLPYLKEFIHRNPHISISIECQSTNETLKLLDDDKIDIGLIGKPASLKTFNFYYLDNIEDIFVTTKDYLRNLSARGVKKSEILQNSTLMLLDKGNMTRKYIDDYLQENQIHVKDSIDISNMDLLIDFAKIGVGVACVIKSIVSKELADGTLIEIPLGIPIHKREVGFAYKESSKLSTSLQTFIKFYESYTPEDF”, with “not soluble”.
Regarding “MRNIYDLANELERGIRALPEYKNLVEKKEAIATDAEASALFKEFTDFQEDFYAKMQAGTMPTAEEQAAVQELGQKVEANALLKEYLTAQQSLSVYLNDIERIIFKPLQELNN”, the “soluble on expression in E. coli” value was “not soluble”.
Regarding “MTAHFRPAVYDLPRDGHTVFRWEHPPQQATVELERLQRKQSLAAAFRVFARLGFDMGGAGHITVRDPGRPDHFWVNPVGVYFGHVRVRDLLLVNPEGAVIEGEGALNLAAFAIHAALHEAHPEVVAAAHAHSLYGKAWSSLGRLLDPLTQDACAFYERHGLFDNFSGVVLEASEGVRIAAALAGRKALILQNHGLLTVGETVEAAVWRFIAMDNAAQTQLLAEAAGTPRPIPHEVARHTARQVGTEFGGWFSFQPYRERIVREEPDFLDLEHHHHHH”, the “soluble on expression in E. coli” value is reported as “not soluble”.
The value for “MSLTLAFAYVRASTIEEVRQGSNERQKEAIRQYTYQKGYELEIFEDKAKSGRNTLRPEFERMLKSLDRRPQIVIVSKIDRFARSLSDLLKTLEYLDQNGVGFVSVNDPGIDTTTPNGRLLLQILGAFAEFERNMINSRTKAGREQAQSKGVKKGIITITTDPNSSSVDKLAAALEHHHHHH” was “soluble”; that for “RQTDFTRPDGSRSTVALLQGNIDQTLKWREDQVIPTIQKYYEQVGKTTADIVILPETAIPVMRQNLPENILAKFAEQAQNNGSALAVGISQYTSDGNGYENAVINLTGYQENNQDGIPYYAKNHLVPFGEYKPLPFLTTPLYKMMDMPLSDFRKGGGKQSALLMKNQKIAFNICYEDGFGDELIAAAKDATLLANASNMAWYGKSNAMYQHLQQSQARAMELGRYMVRATNTGATAIISPKGNIIAQAQPDTETVLEGHIKGYVGETPYMKTG” was “not soluble”.
On to “MGSDKIHHHHHHMFYQLYELNHAALQPARLYADAVRMFYSNPLNPIAHTHWGRSVAAGAELFERTTRRYGKPAFGLDKTVVDWKSVEVTEKTVWSKPFCNLVRFERAMPAGRKPDPKLLIVAPMSGHYATLLRGTVEAMLPYADVHITDWVDARMVPLVDGSFDLDDYIDYIIEMFHALGPDTHVMAVCQPSVPVLAAVALMEAKGDPFVPSTMTLMGGPIDTRRNPTAVNLLAEEKGIDWFRDNVVMRAPWPVPGFGREVYPGFLQLSGFMSMNLDRHIIAHKDFFMHLVKNDGDNAEKHRDFYDEYMAVMDLTAEFYLQTVDTVFVRHALPKGEMKHRGAAIDTSAIRNVALFTVEGENDDISGLGQTKAAQDLCINIPADKKAHYMQPAVGHYGVFNGSRFRSEIVPRIVDFITSYGRQNRVAVKPKLVRTAKR”, for which the “soluble on expression in E. coli” value was “not soluble”.
The value for “GPLGSMSVAGLKKQFHKATQKVSEKVGGAEGTKLDDDFKEMERKVDVTSRAVMEIMTKTIEYLAHLSSLLQAEALLAEAMLKFGRELGDDCNFGPALGEVGEAMRELSEVKDSLDIEVKQNFIDPLQNLHDKDLREIQHHLKKLEGRRLDFDYKKKRQGKIPDEELRQALEKFDESKEIAESSMFNLLEMDIEQVSQLSALVQAQLEYHKQAVQILQQVTVRLEERIRQA” was “soluble”.
The value for “MHHHHHHGSKFKGSTFGRLVRIEFDILRLGELKIDDLSEFDTSEIKLEIKATSSGIKLVGVWEGDIEKVGEAIKKALEESIKLRERILRKMKSKVERIRKALLEMGFREEQFGYGEAVKFVKKVGDFEIAIIVSSREDIVRVEVYGEGNRKIIAPELEAFFESVDIEEIEVYDIEEEGREEKVVINLELPKSDEKPEKRITEAVKILENILMA” was “soluble”; that for “MIVSMKKLAQLLLPLLLPFSAEAGGQPDFCKSINHAGGRYTVCSFDPAKNTIRIYDQDHVSGQGYRNFADLSSALWRQHMFSVFAMNGGMYHSDYSPVGLFVENGVERSPVSTRGGWGNFHLLPNGVFYLDGNTAGVLETEAYLAADPKPDFATQSGPMLVIDGKLHPRFLPDSDSLKRRNGVGVSRDGMVHFAISETTVRFYDFGTLFRDVLDAPNALYLDGTISSVDIPAMNRRDQLFSMGPIIAVVDRVPDLEHHHHHH” was “not soluble”.
On to “MEFKEYKGKNVDEAITNACIDLGIEAAKLEYEVIEKGSNGFLGIGSKPAIIKAKKNQSVEDIAREFLNKVFTAMELTVKIDIKIVENEKENIVNINIIGEDMGILIGKRGQTLDSLQYLVSLVINKECEKFNRVKLDTENYRERRKATLENLARNISLKVKRIKKPVALEPMNPYERRIIHSALQNDKFCTTKSEGDEPYRHVVVMLKKDAR”, for which the “soluble on expression in E. coli” value is listed as “not soluble”.
Consider “MNITKIISKTFDSRLKQIDLYASQASEIQHRVLSRLVNQAAQTEWGKKYDYASIRSYEDFRNRLPIQTYEEIKPYVERLRAGEQNLLWPSEIRWFAKSSGTTNDKSKFLPVSKEALEDIHYRGGKDAAALYFRINPDSHFFSGKGLILGGSHSPNLNSNHSLVGDLSAILIQNVNPLINFIRVPSKKIALMSEWETKIEAIANSTIPVNVTSLSGVPSWMLVLIKRILEKTGKQTLEEVWPNLEVFFHGGVAFTPYREQYKQVIHSKMMHYVETYNASEGYFGTQNDLSDPAMLLMIDYGIFYEFVPLEEVDKENPRAYCLEEVELNKNYAMVISTSCGLWRYMIGDTVKFTNKNPYKFVITGRTKHFINAFGEELIVDNAEKGLAKACAETGAQVCEYSAAPVFMDEHAKCRHQWLIEFAKMPDSVEKFAAILDATLKEVNSDYEAKRWKDIALQPLEVIVARPGLFHDWLARKGKLGGQHKVPRLSNTREYIESMLVLNNELEHHHHHH”, for which the “soluble on expression in E. coli” value is “not soluble”.
Regarding “SKIVKIIGREIIDSRGNPTVEAEVHLEGGFVGMAAAPSGASTGSREALELRDGDKSRFLGKGVTKAVAAVNGPIAQALIGKDAKDQAGIDKIMIDLDGTENKSKFGANAILAVSLANAKAAAAAKGMPLYEHIAELNGTPGKYSMPVPMMNIINGGEHADNNVDIQEFMIQPVGAKTVKEAIRMGSEVFHHLAKVLKAKGMNTAVGDEGGYAPNLGSNAEALAVIAEAVKAAGYELGKDITLAMDCAASEFYKDGKYVLAGEGNKAFTSEEFTHFLEELTKQYPIVSIEDGLDESDWDGFAYQTKVLGDKIQLVGDDLFVTNTKILKEGIEKGIANSILIKFNQIGSLTETLAAIKMAKDAGYTAVISHRSGETEDATIADLAVGTAAGQIKTGSMSRSDRVAKYNQLIRIEEALGEKAPYNGRKEIKGQA”, the “soluble on expression in E. coli” value was “soluble”.
